The values that follow come from US20030158389A1.

Usually EC50 stands for the concentration at which the effect is half-maximal.

Assay [1] addresses human C1q (Quidel, San Diego, Calif.) (human) (UniProt P02745). As to the kind of experiment: cell-based or functional assay.
Assay [2] has the same target. As to the kind of experiment: C1q binding ELISA, antibody coated on plate, 2 µg/ml C1q.
Assay [3] concerns the target CD20 antigen on WIL2-S cells (UniProt P11836). As to the kind of experiment: flow cytometry on WIL2-S cells expressing CD20.
Assay [4] deals with human C1q (Quidel, San Diego, Calif.) (human) (UniProt P02745). As to the kind of experiment: C1q binding ELISA, antibody coated on plate, 2 µg/ml C1q. The source holds these as a separate data set.

Where two headings read alike, the source gives them in different places. Where only a bound is given, the exact number is not on record here.

human C1q (Quidel, San Diego, Calif.) (human), sequence (P02745 23-245 limits assumed, chain 1 of 3): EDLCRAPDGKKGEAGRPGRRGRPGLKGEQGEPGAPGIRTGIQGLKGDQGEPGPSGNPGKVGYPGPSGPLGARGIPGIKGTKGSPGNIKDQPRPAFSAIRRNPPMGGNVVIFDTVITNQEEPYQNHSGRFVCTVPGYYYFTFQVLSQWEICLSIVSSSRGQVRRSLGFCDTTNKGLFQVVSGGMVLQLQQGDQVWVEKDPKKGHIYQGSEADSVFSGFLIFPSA
human C1q (Quidel, San Diego, Calif.) (human), sequence (P02746 28-253 limits assumed, chain 2 of 3, further chain): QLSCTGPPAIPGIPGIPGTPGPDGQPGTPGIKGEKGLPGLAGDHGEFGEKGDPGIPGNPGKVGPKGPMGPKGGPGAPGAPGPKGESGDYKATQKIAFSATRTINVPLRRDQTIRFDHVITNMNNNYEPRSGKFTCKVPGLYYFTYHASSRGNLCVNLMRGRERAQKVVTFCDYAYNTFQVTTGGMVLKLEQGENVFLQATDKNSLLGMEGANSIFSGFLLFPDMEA
human C1q (Quidel, San Diego, Calif.) (human), sequence (P02747 29-245 limits assumed, chain 3 of 3, further chain): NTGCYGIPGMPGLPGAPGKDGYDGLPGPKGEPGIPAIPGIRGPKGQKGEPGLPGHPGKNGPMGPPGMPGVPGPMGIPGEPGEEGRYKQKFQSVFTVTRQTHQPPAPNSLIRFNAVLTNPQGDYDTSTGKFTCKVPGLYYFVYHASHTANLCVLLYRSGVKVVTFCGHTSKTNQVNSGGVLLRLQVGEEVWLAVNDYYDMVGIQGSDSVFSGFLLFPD
CD20 antigen on WIL2-S cells, sequence (P11836 whole entry): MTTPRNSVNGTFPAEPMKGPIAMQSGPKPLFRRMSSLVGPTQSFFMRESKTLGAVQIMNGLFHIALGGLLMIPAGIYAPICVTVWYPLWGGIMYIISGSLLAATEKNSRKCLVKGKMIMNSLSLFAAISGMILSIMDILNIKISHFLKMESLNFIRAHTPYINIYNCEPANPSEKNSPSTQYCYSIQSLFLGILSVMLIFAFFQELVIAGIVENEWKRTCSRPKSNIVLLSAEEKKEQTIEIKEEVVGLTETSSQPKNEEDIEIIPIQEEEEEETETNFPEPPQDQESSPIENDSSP

The substance “C2B8 double mutant K326A-E333A (antibody)” had a CDC, fold better than wild type C2B8 in assay [1] greater than 2 fold. The substance further had a fold better binding than wild type C2B8 in assay [2] greater than 3 fold. The matching figures for “C2B8 double mutant K326M-E333S (antibody)”: greater than 2 fold and greater than 3 fold. Consider C2B8 mutant E318A (antibody), for which, in assay [1], the CDC, percentage of the wild type was 108%. In assay [3], the EC50 as percentage of the wild type came out at 89%. This substance registered a percent decrease in binding against wild type C2B8 in assay [2] of 30%. In assay [2], C2B8 mutant E333A (antibody) registered an EC50 of 0.98 µg/mL and a percent increase in binding against wild type of 30%. Substance C2B8 mutant E333D (antibody) had an EC50 in assay [2] of 1.22 µg/mL. C2B8 mutant E333G (antibody): the EC50 in assay [2] is 1.14 µg/mL.

Regarding C2B8 mutant E333Q (antibody), the EC50 in assay [2] is 1.52 µg/mL. On to C2B8 mutant E333S (antibody), for which, in assay [2], the EC50 came out at 0.81 µg/mL and the fold increase in binding against wild type came to 2 fold. In assay [2], C2B8 mutant E333V (antibody) showed an EC50 of 1.18 µg/mL. For the substance C2B8 mutant K320A (antibody), the CDC, percentage of the wild type in assay [1] worked out at 108%. This substance also registered an EC50 as percentage of the wild type in assay [3] of 102%. In assay [2], C2B8 mutant K326A (antibody) gave a 50% effective concentration (EC50) of 1.03 µg/mL and a percent increase in binding against wild type of 30%. The substance C2B8 mutant K326D (antibody) had a fold increase in binding against wild type in assay [4] greater than 2 fold. The EC50 in assay [2] is 0.76 µg/mL. Taken in the same sequence, the figures for C2B8 mutant K326E (antibody) were greater than 2 fold and 1.08 µg/mL. C2B8 mutant K326G (antibody) showed an EC50 in assay [2] of 0.95 µg/mL. Turning to C2B8 mutant K326M (antibody), the fold increase in binding against wild type in assay [4] was greater than 2 fold. Moreover, in assay [2], the EC50 came out at 0.67 µg/mL. In turn, C2B8 mutant K326V (antibody) showed an EC50 in assay [2] of 1.3 µg/mL. In assay [4], C2B8 mutant K326W (antibody) had a fold increase in binding against wild type greater than 2 fold. Besides, in assay [2], the EC50 was found to be 0.47 µg/mL and the fold increase in binding against wild type was found to be 5 fold. In assay [2], C2B8 mutant K334A (antibody) had an EC50 of 1.07 µg/mL and a percent increase in binding against wild type greater than 30%. Regarding C2B8 mutant P329A (antibody), in assay [3], the EC50 as percentage of the wild type came out at 112%. Regarding C2B8 mutant P331A (antibody), the EC50 as percentage of the wild type in assay [3] amounted to 103%. Further, the fold lower binding than wild type C2B8 in assay [2] is 60 fold. Regarding “C2B8 mutant with A327 in the human IgG1 constant region changed to glycine (antibody)”, the percent increase in binding against wild type in assay [2] is 50%.
